From patent publication US20160200782A1 (MOERAE MATRIX, published 2016) come the findings set out here.

Some targets named below: CK1γ3(h) (human, UniProt Q9Y6M4 1-447); PKCβII(h) (human, UniProt P05771-2 1-673); Lck(h) (human, UniProt P06239 1-509, limits assumed); CK1γ2(h) (human, UniProt P78368 1-415); PKBγ(h) (human, UniProt Q9Y243 1-479, limits assumed); EphA7(h) (human, UniProt Q15375 577-998, limits assumed); PAK5(h) (human, UniProt Q9P286 1-719, limits assumed); ACK1(h) (human, UniProt Q07912 110-476, limits assumed); CK1γ1(h) (human, UniProt Q9HCP0 1-422); Tie2(R849W)(h) (human, UniProt Q02763 771-1124, limits assumed); EGFR(L858R)(h) (human, UniProt P00533 696-1210, limits assumed); CK2α2(h) (human, UniProt P19784 1-350); SRPK2(h) (human, UniProt P78362 1-688, limits assumed); Plk1(h) (human, UniProt P53350 1-603, limits assumed).

Holding throughout (assay): cell-based or functional assay
A further test deals with T1, EphB3(h) (human, UniProt P54753 581-998, limits assumed).
T1 sequence (looked up): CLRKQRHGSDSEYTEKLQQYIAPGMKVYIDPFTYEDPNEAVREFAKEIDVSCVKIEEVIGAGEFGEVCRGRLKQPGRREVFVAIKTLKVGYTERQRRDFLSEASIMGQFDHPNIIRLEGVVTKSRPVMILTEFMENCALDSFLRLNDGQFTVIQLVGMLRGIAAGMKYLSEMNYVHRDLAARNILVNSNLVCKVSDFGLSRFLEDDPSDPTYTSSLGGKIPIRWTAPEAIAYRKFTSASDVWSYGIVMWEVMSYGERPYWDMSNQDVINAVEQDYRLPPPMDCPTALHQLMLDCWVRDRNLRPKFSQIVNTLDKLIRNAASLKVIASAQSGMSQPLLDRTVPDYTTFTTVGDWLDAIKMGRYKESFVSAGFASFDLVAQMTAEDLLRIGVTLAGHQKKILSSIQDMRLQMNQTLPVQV

For a further test, the target named is T2, EphA1(h) (human, UniProt P21709 569-976, limits assumed).
T2 sequence (looked up): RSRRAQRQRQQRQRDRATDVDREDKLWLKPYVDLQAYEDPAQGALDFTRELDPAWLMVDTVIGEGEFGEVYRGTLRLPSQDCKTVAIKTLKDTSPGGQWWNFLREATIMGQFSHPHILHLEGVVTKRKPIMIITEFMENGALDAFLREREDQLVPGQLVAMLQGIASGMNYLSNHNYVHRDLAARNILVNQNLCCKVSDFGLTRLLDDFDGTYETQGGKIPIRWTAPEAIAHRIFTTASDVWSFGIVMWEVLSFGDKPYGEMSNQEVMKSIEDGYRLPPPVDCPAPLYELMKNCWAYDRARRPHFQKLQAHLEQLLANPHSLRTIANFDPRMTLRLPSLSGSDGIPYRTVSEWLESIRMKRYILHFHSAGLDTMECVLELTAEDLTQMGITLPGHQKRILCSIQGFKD

A further test addresses T3, Ax1(h) (human, UniProt P30530 473-894, limits assumed).
T3 sequence (looked up): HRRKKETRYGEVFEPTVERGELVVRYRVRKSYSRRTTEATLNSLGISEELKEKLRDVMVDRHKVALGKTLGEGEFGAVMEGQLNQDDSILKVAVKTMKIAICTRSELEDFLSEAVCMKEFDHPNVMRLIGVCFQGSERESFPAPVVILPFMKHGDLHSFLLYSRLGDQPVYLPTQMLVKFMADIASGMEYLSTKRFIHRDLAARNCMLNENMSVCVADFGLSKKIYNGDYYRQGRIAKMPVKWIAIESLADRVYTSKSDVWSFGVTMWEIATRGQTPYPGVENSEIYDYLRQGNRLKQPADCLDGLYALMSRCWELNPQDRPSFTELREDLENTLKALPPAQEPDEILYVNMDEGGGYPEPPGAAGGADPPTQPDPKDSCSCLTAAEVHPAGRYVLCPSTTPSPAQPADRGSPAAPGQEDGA

Another test deals with T4, Aurora-A(h) (human, UniProt O14965 1-403).
T4 sequence (looked up): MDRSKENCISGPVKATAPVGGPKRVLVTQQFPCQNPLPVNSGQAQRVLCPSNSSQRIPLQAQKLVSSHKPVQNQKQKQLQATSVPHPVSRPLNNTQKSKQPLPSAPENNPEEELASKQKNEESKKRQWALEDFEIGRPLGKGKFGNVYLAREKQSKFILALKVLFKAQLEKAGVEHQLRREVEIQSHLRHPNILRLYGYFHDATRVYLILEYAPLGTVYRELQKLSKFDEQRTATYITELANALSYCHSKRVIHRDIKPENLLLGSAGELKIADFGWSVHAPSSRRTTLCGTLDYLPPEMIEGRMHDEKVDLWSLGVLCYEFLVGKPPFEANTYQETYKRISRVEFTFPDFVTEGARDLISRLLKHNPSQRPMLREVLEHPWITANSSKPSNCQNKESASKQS
Also: test concentration or dose not given here.

B1: MMI-0300 (peptide)
peptide: FAKLAARLYRKALARQLGVAA
Turning to B1, the “% activity” value with CK1γ3(h) is 125%; with EphB3(h), 62%; with PKCβII(h) it was 82%; with Lck(h) it was -2%; with EphA1(h), 73%; in the test with Ax1(h) it was 52%. The “% activity” value came to 123% in the test with CK1γ2(h); 20% with PKBγ(h); 92% with Aurora-A(h); 159% with EphA7(h); 110% with PAK5(h).

B2: MMI-0400 (peptide)
peptide: KAFAKLAARLYRKALARQLGVAA
As for B2, the “% activity” value was determined as 95% with ACK1(h); 47% in the test with EphB3(h); 116% with CK1γ1(h); 75% with PKCβII(h); 61% with EphA1(h); 108% in the test with Tie2(R849W)(h). Moreover, the “% activity” value with Ax1(h) amounted to 41%; with PKBγ(h), 41%; in the test with Aurora-A(h), 119%; with EGFR(L858R)(h) it was 52%; in the test with EphA7(h), 222%; with CK2α2(h), 96%. Further, the figures for the “% activity” value with SRPK2(h) and with Plk1(h) were 97% and 119%, respectively.
